This data set deals with T1, His-tagged full length BAAT1 (baculovirus, produced in Sf9 cells).
T1 sequence: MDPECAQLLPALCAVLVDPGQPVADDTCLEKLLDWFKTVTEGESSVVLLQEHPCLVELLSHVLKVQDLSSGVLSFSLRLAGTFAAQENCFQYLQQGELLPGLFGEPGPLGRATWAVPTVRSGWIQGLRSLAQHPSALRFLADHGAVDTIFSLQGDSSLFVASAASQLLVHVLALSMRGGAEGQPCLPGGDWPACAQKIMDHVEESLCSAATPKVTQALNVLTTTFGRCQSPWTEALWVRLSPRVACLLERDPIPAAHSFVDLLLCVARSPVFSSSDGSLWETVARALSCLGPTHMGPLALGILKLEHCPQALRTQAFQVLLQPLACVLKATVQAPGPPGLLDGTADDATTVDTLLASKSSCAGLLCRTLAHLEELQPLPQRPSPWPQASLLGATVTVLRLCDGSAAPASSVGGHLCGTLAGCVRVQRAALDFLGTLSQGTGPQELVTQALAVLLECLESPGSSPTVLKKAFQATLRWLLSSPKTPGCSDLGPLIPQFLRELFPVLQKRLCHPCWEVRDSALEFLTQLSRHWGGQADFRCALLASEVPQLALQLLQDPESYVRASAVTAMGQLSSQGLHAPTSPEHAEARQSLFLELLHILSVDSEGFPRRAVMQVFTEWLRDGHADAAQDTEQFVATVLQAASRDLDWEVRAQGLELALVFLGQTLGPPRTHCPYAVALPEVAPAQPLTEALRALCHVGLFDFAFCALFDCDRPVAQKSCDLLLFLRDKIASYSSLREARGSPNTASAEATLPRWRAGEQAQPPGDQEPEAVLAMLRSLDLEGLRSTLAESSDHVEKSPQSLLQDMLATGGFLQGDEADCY

With “ataxia telangiectasia mutated (endogenous, from human cell lysates)”, the “in vitro PP2A phosphatase assay on immunoprecipitated ATM, Ser1981 phosphorylation by immunoblot” value is “dephosphorylation of ATM Ser1981 was partially blocked in the presence of full length, baculovirus produced BAAT1”.

Values taken from US20070072210.
